Drawing on paper PMC11895441, this text covers Kd, koff and kon for one substance.

In this test the target is human complement Factor H (human) (UniProt P08603). In words: SPR; Biacore X100 Plus; human FH captured by immobilised anti-FH mAb (Q254) on CM5; refolded NspA as analyte, five 3.16-fold dilutions from 10 µM, single-cycle kinetics; 10 mM HEPES, 150 mM NaCl, 3 mM EDTA, 0.005% P-20, pH 7.4; 1:1 model; apparent KD.
Chain of UniProt P08603 (P08603 19-1231): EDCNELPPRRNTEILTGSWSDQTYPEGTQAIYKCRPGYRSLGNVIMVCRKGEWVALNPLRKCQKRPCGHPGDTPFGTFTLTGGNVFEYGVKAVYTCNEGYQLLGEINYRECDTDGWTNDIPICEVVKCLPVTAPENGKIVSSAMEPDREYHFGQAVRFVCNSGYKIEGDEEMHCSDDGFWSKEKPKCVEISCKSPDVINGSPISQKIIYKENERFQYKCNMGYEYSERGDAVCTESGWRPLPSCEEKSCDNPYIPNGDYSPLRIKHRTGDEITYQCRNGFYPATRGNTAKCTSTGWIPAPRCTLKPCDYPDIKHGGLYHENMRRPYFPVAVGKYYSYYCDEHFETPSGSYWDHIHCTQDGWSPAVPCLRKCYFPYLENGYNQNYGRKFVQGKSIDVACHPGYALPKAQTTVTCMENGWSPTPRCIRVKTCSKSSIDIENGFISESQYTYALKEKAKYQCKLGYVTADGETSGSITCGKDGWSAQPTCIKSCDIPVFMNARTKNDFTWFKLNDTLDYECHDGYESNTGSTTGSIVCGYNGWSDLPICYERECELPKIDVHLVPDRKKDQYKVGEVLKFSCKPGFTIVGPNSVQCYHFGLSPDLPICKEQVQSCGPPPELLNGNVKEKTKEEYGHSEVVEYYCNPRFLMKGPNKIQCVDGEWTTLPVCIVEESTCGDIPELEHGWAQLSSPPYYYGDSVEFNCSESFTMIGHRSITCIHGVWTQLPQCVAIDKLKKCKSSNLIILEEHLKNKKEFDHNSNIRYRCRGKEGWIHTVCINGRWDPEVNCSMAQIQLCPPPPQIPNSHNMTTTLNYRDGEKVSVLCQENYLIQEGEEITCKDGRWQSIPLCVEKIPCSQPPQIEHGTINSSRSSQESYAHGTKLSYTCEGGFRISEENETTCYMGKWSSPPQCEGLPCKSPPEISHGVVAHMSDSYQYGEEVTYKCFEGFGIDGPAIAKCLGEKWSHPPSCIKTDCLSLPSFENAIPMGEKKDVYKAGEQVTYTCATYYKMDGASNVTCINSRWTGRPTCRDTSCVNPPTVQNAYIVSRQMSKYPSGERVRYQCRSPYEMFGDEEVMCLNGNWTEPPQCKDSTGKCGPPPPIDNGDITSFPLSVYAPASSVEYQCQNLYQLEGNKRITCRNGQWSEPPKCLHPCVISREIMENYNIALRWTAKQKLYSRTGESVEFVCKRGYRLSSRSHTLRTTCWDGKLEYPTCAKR

Consider “purified, refolded NspA from N. meningitidis strain 8047, wild type, without signal sequence (natural protein)”, for which the Kd came to 24.8 nM, the koff came out at 0.000608 s⁻¹ and the kon came out at 25100 M⁻¹ s⁻¹.

Usually koff stands for the rate constant with which the complex falls apart. One may read the kon as a measure of how fast the partners come together.
